Common to all, as to details: both partners purified
In assay [1] the target is T1, β1γ3 complex of the recombinant mouse laminin coiled-coil fragments (mouse, UniProt P02469 1561-1786; Q9R0B6 1344-1581).
T1 construct: two residues (GlySer) left from the protease recognition site after thrombin cleavage; laminin β1 chain, mouse, residues 1561-1786 of the native chain; as m6; laminin γ3 chain, mouse, residues 1344-1581 of the native chain; as m11; in the αβγ tests all three chains were mixed, the βγ complex was not isolated beforehand; source: mixture of the purified E. coli fragments; not shown: 6xHis, …
T1 sequence 1: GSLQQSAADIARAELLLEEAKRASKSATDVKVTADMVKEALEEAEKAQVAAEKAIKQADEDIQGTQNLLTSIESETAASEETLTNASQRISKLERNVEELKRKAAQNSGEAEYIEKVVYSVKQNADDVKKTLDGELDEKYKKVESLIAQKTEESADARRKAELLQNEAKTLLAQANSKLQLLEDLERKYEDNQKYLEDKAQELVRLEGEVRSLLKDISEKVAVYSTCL
T1 sequence 2: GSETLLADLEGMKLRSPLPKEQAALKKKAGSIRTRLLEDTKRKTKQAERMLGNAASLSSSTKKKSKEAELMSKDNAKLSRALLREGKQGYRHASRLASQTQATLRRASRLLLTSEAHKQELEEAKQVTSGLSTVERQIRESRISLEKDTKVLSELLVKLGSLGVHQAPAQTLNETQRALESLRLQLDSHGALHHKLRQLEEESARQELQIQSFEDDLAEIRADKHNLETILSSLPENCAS
As to the kind of experiment: native gel or EMSA; mixtures of one α, one β and one γ chain fragment; 10% non-denaturing PAGE (acid gels for basic complexes); mixtures reduced, heated to 70 °C for 5 min and cooled; run overnight at 50 V, room temperature, no cooling; Coomassie; bands confirmed by in-gel trypsin digestion and mass spectrometry.

In assay [2] the target is T2, β2γ1 complex of the recombinant mouse laminin coiled-coil fragments (mouse, UniProt Q61292 1575-1799; P02468 1362-1607).
T2 construct: two residues (GlySer) left from the protease recognition site after thrombin cleavage; laminin β2 chain, mouse, residues 1575-1799 of the native chain; as m7; laminin γ1 chain, mouse, residues 1362-1607 of the native chain; as m9; in the αβγ tests all three chains were mixed, the βγ complex was not isolated beforehand; source: mixture of the purified E. coli fragments; not shown: 6xHis, …
T2 sequence 1: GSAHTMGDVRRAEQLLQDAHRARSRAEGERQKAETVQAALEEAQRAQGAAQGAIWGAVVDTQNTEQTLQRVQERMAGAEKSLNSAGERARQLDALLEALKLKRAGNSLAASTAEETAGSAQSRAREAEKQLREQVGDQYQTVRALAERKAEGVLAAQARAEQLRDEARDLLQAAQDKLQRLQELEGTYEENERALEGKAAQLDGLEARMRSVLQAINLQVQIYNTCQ
T2 sequence 2: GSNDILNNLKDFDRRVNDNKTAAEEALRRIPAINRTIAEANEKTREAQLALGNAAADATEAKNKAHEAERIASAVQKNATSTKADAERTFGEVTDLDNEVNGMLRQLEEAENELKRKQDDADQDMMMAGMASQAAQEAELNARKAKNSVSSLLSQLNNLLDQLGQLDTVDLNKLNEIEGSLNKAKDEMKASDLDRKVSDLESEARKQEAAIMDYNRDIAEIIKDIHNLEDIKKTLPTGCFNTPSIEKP
The description is as above.

Assay [3] addresses T3, β1γ1 complex of the recombinant mouse laminin coiled-coil fragments (mouse, UniProt P02469 1561-1786; P02468 1362-1607).
T3 construct: two residues (GlySer) left from the protease recognition site after thrombin cleavage; laminin β1 chain, mouse, residues 1561-1786 of the native chain; as m6; laminin γ1 chain, mouse, residues 1362-1607 of the native chain; as m9; heterodimer by AUC; in the αβγ tests all three chains were mixed, the βγ complex was not isolated beforehand; source: mixture of the purified E. coli fragments; not …
T3 sequence 1: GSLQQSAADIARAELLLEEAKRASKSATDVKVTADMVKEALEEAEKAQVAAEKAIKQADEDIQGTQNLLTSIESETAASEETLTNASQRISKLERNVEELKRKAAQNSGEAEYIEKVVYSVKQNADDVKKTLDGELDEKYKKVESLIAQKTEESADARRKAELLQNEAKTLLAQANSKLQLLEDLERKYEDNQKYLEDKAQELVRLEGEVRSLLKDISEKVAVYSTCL
T3 sequence 2: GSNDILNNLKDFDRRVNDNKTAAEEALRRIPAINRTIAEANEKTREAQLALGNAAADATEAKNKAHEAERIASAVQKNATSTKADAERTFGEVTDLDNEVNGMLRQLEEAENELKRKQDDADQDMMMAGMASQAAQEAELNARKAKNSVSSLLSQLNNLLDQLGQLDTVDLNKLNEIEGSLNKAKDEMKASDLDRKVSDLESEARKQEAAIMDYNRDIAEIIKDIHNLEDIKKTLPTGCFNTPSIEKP
Described as above.

Assay [4] deals with T4, recombinant mouse laminin γ2 chain C-terminal coiled-coil fragment (949–1191) (mouse, UniProt Q61092 949-1191).
T4 construct: two residues (GlySer) left from the protease recognition site after thrombin cleavage; laminin γ2 chain, mouse, C-terminal coiled-coil fragment, residues 949-1191 of the native chain (243 residues); source: E. coli JM109(DE3), purified (Ni2+-Sepharose, denaturing, 8 M urea), 6xHis tag removed by thrombin; not shown: 6xHis, N-terminal, cleaved; pPEP-T leader (short C-terminal fragment of the …)
T4 sequence: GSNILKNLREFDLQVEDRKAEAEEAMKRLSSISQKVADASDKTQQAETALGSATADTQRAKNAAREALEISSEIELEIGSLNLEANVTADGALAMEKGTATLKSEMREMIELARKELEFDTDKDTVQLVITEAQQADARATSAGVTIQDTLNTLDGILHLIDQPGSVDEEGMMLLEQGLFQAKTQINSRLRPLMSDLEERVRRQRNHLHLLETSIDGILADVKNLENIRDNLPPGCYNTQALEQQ
As to the kind of experiment: native gel or EMSA; mixtures of one β and one γ chain fragment; 10% non-denaturing PAGE (acid gels for basic complexes); mixtures reduced, heated to 70 °C for 5 min and cooled; run overnight at 50 V; Coomassie; bands confirmed by in-gel trypsin digestion and mass spectrometry.

The target of assay [5] is T5, recombinant mouse laminin γ3 chain C-terminal coiled-coil fragment (1344–1581) (mouse, UniProt Q9R0B6 1344-1581).
T5 construct: two residues (GlySer) left from the protease recognition site after thrombin cleavage; laminin γ3 chain, mouse, C-terminal coiled-coil fragment, residues 1344-1581 of the native chain (238 residues); source: E. coli JM109(DE3), purified (Ni2+-Sepharose, denaturing, 8 M urea), 6xHis tag removed by thrombin; not shown: 6xHis, N-terminal, cleaved
T5 sequence: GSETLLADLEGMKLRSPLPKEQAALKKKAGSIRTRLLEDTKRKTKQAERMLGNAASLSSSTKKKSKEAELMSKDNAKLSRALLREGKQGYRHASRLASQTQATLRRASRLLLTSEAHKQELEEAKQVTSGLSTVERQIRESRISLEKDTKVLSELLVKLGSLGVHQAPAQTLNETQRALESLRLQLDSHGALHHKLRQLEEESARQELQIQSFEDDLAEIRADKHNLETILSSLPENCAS
The description is as above.

For assay [6], the target named is T6, recombinant mouse laminin γ1 chain C-terminal coiled-coil fragment (1362–1607) (mouse, UniProt P02468 1362-1607).
T6 construct: two residues (GlySer) left from the protease recognition site after thrombin cleavage; laminin γ1 chain, mouse, C-terminal coiled-coil fragment, residues 1362-1607 of the native chain (246 residues); source: E. coli JM109(DE3), purified (Ni2+-Sepharose, denaturing, 8 M urea), 6xHis tag removed by thrombin; not shown: 6xHis, N-terminal, cleaved; pPEP-T leader (short C-terminal fragment of the …)
T6 sequence: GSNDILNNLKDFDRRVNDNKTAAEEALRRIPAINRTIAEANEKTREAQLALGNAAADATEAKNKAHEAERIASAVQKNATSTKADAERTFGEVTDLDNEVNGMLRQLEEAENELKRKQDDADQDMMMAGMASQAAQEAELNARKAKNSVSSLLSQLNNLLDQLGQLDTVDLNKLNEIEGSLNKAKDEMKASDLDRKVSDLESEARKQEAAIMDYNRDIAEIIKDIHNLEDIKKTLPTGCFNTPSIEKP
The description is as above.

B1: recombinant mouse laminin α2 chain C-terminal coiled-coil fragment (1924–2145) (domain or fragment)
chain: GSYSNIKDYIDEAEKVAREAKELAQGATKLATSPQGLLKEDAKGSLQKSFRILNEAKKLANDVKGNHNDLNDLKTRLETADLRNSGLLGALNDTMDKLSAITNDTAAKLQAVKEKAREANDTAKAVLAQVKDLHQNLDGLKQNYNKLADSVAKTNAVVKDPSKNKIIADAGTSVRNLEQEADRLIDKLKPIKELEDNLKKNISEIKELINQARKQANSIKVSVS
notes: two residues (GlySer) left from the protease recognition site after thrombin cleavage; laminin α2 chain, mouse, C-terminal coiled-coil fragment, residues 1924-2145 of the native chain (222 residues); source: E. coli JM109(DE3), purified (Ni2+-Sepharose, denaturing, 8 M urea), 6xHis tag removed by thrombin; not shown: 6xHis, N-terminal, cleaved; pPEP-T leader (short C-terminal fragment of the …)
As to B1, the binding result in assay [1], in assay [2] and in assay [3] was “binds” in each case.

B2: recombinant mouse laminin α1 chain C-terminal coiled-coil fragment (1911–2125) (domain or fragment)
chain: GSHVHSNIQTLTEEAEMLAADAHKTANKTDLISESLASRGKAVLQRSSRFLKESVSTRRKQQGITMKLDELKNLTSQFQESMDNIMKQANDSLAMLRESPGGMREKGRKARELAAAANESAVKTLEDVLALSLRVFNTSEDLSRVNATVQETNDLLHNSTMTTLLAGRKMKDMEMQANLLLDRLKPLKTLEENLSRNLSEIKLLISRARKQVASIKV
notes: two residues (GlySer) left from the protease recognition site after thrombin cleavage; laminin α1 chain, mouse, C-terminal coiled-coil fragment, residues 1911-2125 of the native chain (215 residues); source: E. coli JM109(DE3), purified (Ni2+-Sepharose, denaturing, 8 M urea), 6xHis tag removed by thrombin; not shown: 6xHis, N-terminal, cleaved; pPEP-T leader (short C-terminal fragment of the …)
In the case of B2, the binding result in assay [2] and in assay [3] was “binds” in each case.

B3: recombinant mouse laminin β1 chain C-terminal coiled-coil fragment (1561–1786) (domain or fragment)
chain: GSLQQSAADIARAELLLEEAKRASKSATDVKVTADMVKEALEEAEKAQVAAEKAIKQADEDIQGTQNLLTSIESETAASEETLTNASQRISKLERNVEELKRKAAQNSGEAEYIEKVVYSVKQNADDVKKTLDGELDEKYKKVESLIAQKTEESADARRKAELLQNEAKTLLAQANSKLQLLEDLERKYEDNQKYLEDKAQELVRLEGEVRSLLKDISEKVAVYSTCL
notes: two residues (GlySer) left from the protease recognition site after thrombin cleavage; laminin β1 chain, mouse, C-terminal coiled-coil fragment, residues 1561-1786 of the native chain (226 residues); source: E. coli JM109(DE3), purified (Ni2+-Sepharose, denaturing, 8 M urea), 6xHis tag removed by thrombin; not shown: 6xHis, N-terminal, cleaved
On to B3, for which the binding result in assay [4], in assay [5] and in assay [6] was “binds” throughout.

These data come from publication PMC2877795, “Laminin chain assembly is regulated by specific coiled-coil interactions” (Journal of Structural Biology, 2010).
